Experimental data: patent US20110165078A1 (UNIVERSITY COURT OF THE UNIVERSITY OF ABERDEEN, published 2011)

Assays:
[1] = target: T1, rat synaptophysin (in rat hepatic stellate cells) (rat, UniProt P07825 1-307); experiment: Western blot of cell extracts (5 µg/lane) probed with C1-3 scAb
T1 construct: In rat HSC extracts on a Western blot; also called synaptophysin in rat HSCs; rHSCs

[2] = target: T2, target peptide-BSA conjugate (…-BSA) (human; bovine, UniProt P02769 25-607, chemically conjugated to bovine serum albumin (BSA) using 3 maleimidoacetic acid N-hydroxysuccinimide (MBS)); experiment: ELISA on coated peptide-BSA or BSA, detection with HRP anti-human Cκ
T2 construct: Typically on average ~4 peptide molecules per molecule of albumin; also called BSA-target peptide; BSA-peptide 2
T2 sequence (P02769 25-607 limits assumed): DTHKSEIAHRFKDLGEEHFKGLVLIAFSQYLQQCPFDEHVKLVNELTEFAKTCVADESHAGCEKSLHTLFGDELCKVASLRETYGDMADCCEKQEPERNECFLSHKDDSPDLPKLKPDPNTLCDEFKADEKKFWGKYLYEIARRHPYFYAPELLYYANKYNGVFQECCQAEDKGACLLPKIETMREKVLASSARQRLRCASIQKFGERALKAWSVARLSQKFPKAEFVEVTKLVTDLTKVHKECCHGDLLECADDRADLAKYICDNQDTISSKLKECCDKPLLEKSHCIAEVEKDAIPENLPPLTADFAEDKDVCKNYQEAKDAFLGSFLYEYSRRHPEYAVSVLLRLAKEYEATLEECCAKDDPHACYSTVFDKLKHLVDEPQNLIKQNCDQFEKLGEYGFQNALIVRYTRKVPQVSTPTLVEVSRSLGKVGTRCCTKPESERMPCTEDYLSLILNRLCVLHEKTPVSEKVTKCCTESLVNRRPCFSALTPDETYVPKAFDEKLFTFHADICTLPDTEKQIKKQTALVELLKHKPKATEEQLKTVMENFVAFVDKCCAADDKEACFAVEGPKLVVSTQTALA

T1 sequence (P07825 whole entry): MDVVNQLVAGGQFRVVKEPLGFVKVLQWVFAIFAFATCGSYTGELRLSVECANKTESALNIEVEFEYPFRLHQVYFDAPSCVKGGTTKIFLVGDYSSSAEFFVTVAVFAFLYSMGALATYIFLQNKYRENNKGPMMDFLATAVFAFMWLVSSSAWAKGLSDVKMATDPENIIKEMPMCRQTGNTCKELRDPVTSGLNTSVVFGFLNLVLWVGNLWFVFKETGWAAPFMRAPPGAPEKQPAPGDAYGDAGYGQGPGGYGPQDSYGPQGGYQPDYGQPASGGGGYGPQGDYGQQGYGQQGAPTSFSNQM

binding result [1]: no binding
fold more scAb bound to peptide-BSA than to BSA alone [2]: ~8 times
B1: C1-3 scAb (scFv)
scFv: MAEVQLLESGGGLVQPGGSLRLSCAASGFTFSSYAMSWVRQAPGKGLEWVSTIAASGPSTGYADSVKGRFTISRDNSKNTLYLQMNSLRAEDTAVYYCAKTTAKFDYWGQGTLVTVSSGGGGSGGGGSGGGGSTDIQMTQSPSSLSASVGDRVTITCRASQSISSYLNWYQQKPGKAPKLLIYSASRLQSGVPSRFNGSGSGTDFTLTISSLQPEDFATYYCQQLQRKPTTFGQGTKVEIKRGAAAPSVFIFPPSDEQLKSGTASVVCLLNNFYPREAKVQWKVDNALQSGNSQESVTEQDSKDSTYSLSSTLTLSKADYEKHKVYACEVTHQGLSSPVTKSFNRGESHHHHHH
notes: Single-chain antibody fragment: scFv fused to human C kappa and a hexa-histidine tag, expressed from pIMS147 in E. coli XL-1 blue; also called C1-3 scFv; clone pIMS147 C1-3
